# From the MegaScale stability set (Tsuboyama et al. 2023)
# B1: 5KPH (parent)
# chain: EEKRQVKQVAKEKLLEQSPNSKVQVRRVQKQGNTIRVELELRTNGKKENYTVEVERQGNTWTVKRITRT
# Variants of: B1
# Assay: folding stability dG (cDNA display proteolysis); higher = more stable
# Settings: PBS, room temperature
row,Variant,folding stability dG [kcal/mol]
1,EEKRQVKQVAKEKLLEQSPNSKMQVRRVQKQGNTIRVELELRTNGKKENYTVEVERQGNTWTVKRITRT [V23M],3.08
2,EEKRQVKQVAKEKLLEQSPNSKPQVRRVQKQGNTIRVELELRTNGKKENYTVEVERQGNTWTVKRITRT [V23P],2.68
3,EEKRQVKQVAKEKLLEQSPNSKLQVRRVQKQGNTIRVELELRTNGKKENYTVEVERQGNTWTVKRITRT [V23L],3.07
4,EEKRQVKQVAKEKLLEQSPNSKCQVRRVQKQGNTIRVELELRTNGKKENYTVEVERQGNTWTVKRITRT [V23C],3.17
5,EEKRQVKQVAKEKLLEQSPNSKQQVRRVQKQGNTIRVELELRTNGKKENYTVEVERQGNTWTVKRITRT [V23Q],1.79
6,EEKRQVKQVAKEKLLEQSPNSKEQVRRVQKQGNTIRVELELRTNGKKENYTVEVERQGNTWTVKRITRT [V23E],1.2
7,EEKRQVKQVAKEKLLEQSPNSKDQVRRVQKQGNTIRVELELRTNGKKENYTVEVERQGNTWTVKRITRT [V23D],1.23
8,EEKRQVKQVAKEKLLEQSPNSKGQVRRVQKQGNTIRVELELRTNGKKENYTVEVERQGNTWTVKRITRT [V23G],1.59
9,EEKRQVKQVAKEKLLEQSPNSKFQVRRVQKQGNTIRVELELRTNGKKENYTVEVERQGNTWTVKRITRT [V23F],2.6
10,EEKRQVKQVAKEKLLEQSPNSKTQVRRVQKQGNTIRVELELRTNGKKENYTVEVERQGNTWTVKRITRT [V23T],2.51
11,EEKRQVKQVAKEKLLEQSPNSKKQVRRVQKQGNTIRVELELRTNGKKENYTVEVERQGNTWTVKRITRT [V23K],1.37
12,EEKRQVKQVAKEKLLEQSPNSKAQVRRVQKQGNTIRVELELRTNGKKENYTVEVERQGNTWTVKRITRT [V23A],3.6
13,EEKRQVKQVAKEKLLEQSPNSKNQVRRVQKQGNTIRVELELRTNGKKENYTVEVERQGNTWTVKRITRT [V23N],1.26
14,EEKRQVKQVAKEKLLEQSPNSKHQVRRVQKQGNTIRVELELRTNGKKENYTVEVERQGNTWTVKRITRT [V23H],1.57
15,EEKRQVKQVAKEKLLEQSPNSKRQVRRVQKQGNTIRVELELRTNGKKENYTVEVERQGNTWTVKRITRT [V23R],1.43
16,EEKRQVKQVAKEKLLEQSPNSKSQVRRVQKQGNTIRVELELRTNGKKENYTVEVERQGNTWTVKRITRT [V23S],2.02
17,EEKRQVKQVAKEKLLEQSPNSKIQVRRVQKQGNTIRVELELRTNGKKENYTVEVERQGNTWTVKRITRT [V23I],3.9
18,EEKRQVKQVAKEKLLEQSVNSKVQVRRVQKQGNTIRVELELRTNGKKENYTVEVERQGNTWTVKRITRT [P19V],2.82
19,EEKRQVKQVAKEKLLEQSYNSKVQVRRVQKQGNTIRVELELRTNGKKENYTVEVERQGNTWTVKRITRT [P19Y],2.13
20,EEKRQVKQVAKEKLLEQSTNSKVQVRRVQKQGNTIRVELELRTNGKKENYTVEVERQGNTWTVKRITRT [P19T],2.69
21,EEKRQVKQVAKEKLLEQSWNSKVQVRRVQKQGNTIRVELELRTNGKKENYTVEVERQGNTWTVKRITRT [P19W],2.15
22,EEKRQVKQVAKEKLLEQSPNSAVQVRRVQKQGNTIRVELELRTNGKKENYTVEVERQGNTWTVKRITRT [K22A],3.71
23,EEKRQVKQVAKEKLLEQSPNSTVQVRRVQKQGNTIRVELELRTNGKKENYTVEVERQGNTWTVKRITRT [K22T],4.16
24,EEKRQVKQVAKEKLLEQSPNSGVQVRRVQKQGNTIRVELELRTNGKKENYTVEVERQGNTWTVKRITRT [K22G],3.2
25,EEKRQVKQVAKEKLLEQSPNSDVQVRRVQKQGNTIRVELELRTNGKKENYTVEVERQGNTWTVKRITRT [K22D],3.8
26,EEKRQVKQVAKEKLLEQSPNSCVQVRRVQKQGNTIRVELELRTNGKKENYTVEVERQGNTWTVKRITRT [K22C],3.65

row,Variant,folding stability dG [kcal/mol]
1,EEKRQVKQVAKEKLLEQSPNSIVQVRRVQKQGNTIRVELELRTNGKKENYTVEVERQGNTWTVKRITRT [K22I],4.01
2,EEKRQVKQVAKEKLLEQSPNSQVQVRRVQKQGNTIRVELELRTNGKKENYTVEVERQGNTWTVKRITRT [K22Q],4.05
3,EEKRQVKQVAKEKLLEQSPNSYVQVRRVQKQGNTIRVELELRTNGKKENYTVEVERQGNTWTVKRITRT [K22Y],4.05
4,EEKRQVKQVAKEKLLEQSPNSRVQVRRVQKQGNTIRVELELRTNGKKENYTVEVERQGNTWTVKRITRT [K22R],3.85
5,EEKRQVKQVAKEKLLEQSPNSSVQVRRVQKQGNTIRVELELRTNGKKENYTVEVERQGNTWTVKRITRT [K22S],3.83
6,EEKRQVKQVAKEKLLEQSPNSFVQVRRVQKQGNTIRVELELRTNGKKENYTVEVERQGNTWTVKRITRT [K22F],4.16
7,EEKRQVKQVAKEKLLEQSPNSMVQVRRVQKQGNTIRVELELRTNGKKENYTVEVERQGNTWTVKRITRT [K22M],3.85
8,EEKRQVKQVAKEKLLEQSPNSVVQVRRVQKQGNTIRVELELRTNGKKENYTVEVERQGNTWTVKRITRT [K22V],4.01
9,EEKRQVKQVAKEKLLEQSPNSNVQVRRVQKQGNTIRVELELRTNGKKENYTVEVERQGNTWTVKRITRT [K22N],3.62
10,EEKRQVKQVAKEKLLEQSPNSPVQVRRVQKQGNTIRVELELRTNGKKENYTVEVERQGNTWTVKRITRT [K22P],2.37
11,EEKRQVKQVAKEKLLEQSPNSEVQVRRVQKQGNTIRVELELRTNGKKENYTVEVERQGNTWTVKRITRT [K22E],4.13
12,EEKRQVKQVAKEKLLEQSPNSWVQVRRVQKQGNTIRVELELRTNGKKENYTVEVERQGNTWTVKRITRT [K22W],4.06
13,EEKRQVKQVAKEKLLEQSPNSHVQVRRVQKQGNTIRVELELRTNGKKENYTVEVERQGNTWTVKRITRT [K22H],3.91
14,EEKRQVKQVAKEKLLEQSPNSLVQVRRVQKQGNTIRVELELRTNGKKENYTVEVERQGNTWTVKRITRT [K22L],3.99
15,EEKRQVKQVAKEKLLEQSPNKKVQVRRVQKQGNTIRVELELRTNGKKENYTVEVERQGNTWTVKRITRT [S21K],2.16
16,EEKRQVKQVAKEKLLEQSPNLKVQVRRVQKQGNTIRVELELRTNGKKENYTVEVERQGNTWTVKRITRT [S21L],2.57
17,EEKRQVKQVAKEKLLEQSPNIKVQVRRVQKQGNTIRVELELRTNGKKENYTVEVERQGNTWTVKRITRT [S21I],2.46
18,EEKRQVKQVAKEKLLEQSPNHKVQVRRVQKQGNTIRVELELRTNGKKENYTVEVERQGNTWTVKRITRT [S21H],2.6
19,EEKRQVKQVAKEKLLEQSPNCKVQVRRVQKQGNTIRVELELRTNGKKENYTVEVERQGNTWTVKRITRT [S21C],3.12
20,EEKRQVKQVAKEKLLEQSPNMKVQVRRVQKQGNTIRVELELRTNGKKENYTVEVERQGNTWTVKRITRT [S21M],2.75
21,EEKRQVKQVAKEKLLEQSPNQKVQVRRVQKQGNTIRVELELRTNGKKENYTVEVERQGNTWTVKRITRT [S21Q],2.31
22,EEKRQVKQVAKEKLLEQSPNRKVQVRRVQKQGNTIRVELELRTNGKKENYTVEVERQGNTWTVKRITRT [S21R],2.18
23,EEKRQVKQVAKEKLLEQSPNGKVQVRRVQKQGNTIRVELELRTNGKKENYTVEVERQGNTWTVKRITRT [S21G],4.01
24,EEKRQVKQVAKEKLLEQSPNVKVQVRRVQKQGNTIRVELELRTNGKKENYTVEVERQGNTWTVKRITRT [S21V],3.17
25,EEKRQVKQVAKEKLLEQSPNTKVQVRRVQKQGNTIRVELELRTNGKKENYTVEVERQGNTWTVKRITRT [S21T],2.81
26,EEKRQVKQVAKEKLLEQSPNPKVQVRRVQKQGNTIRVELELRTNGKKENYTVEVERQGNTWTVKRITRT [S21P],2.37

row,Variant,folding stability dG [kcal/mol]
1,EEKRQVKQVAKEKLLEQSPNDKVQVRRVQKQGNTIRVELELRTNGKKENYTVEVERQGNTWTVKRITRT [S21D],2.23
2,EEKRQVKQVAKEKLLEQSPNFKVQVRRVQKQGNTIRVELELRTNGKKENYTVEVERQGNTWTVKRITRT [S21F],2.65
3,EEKRQVKQVAKEKLLEQSPNEKVQVRRVQKQGNTIRVELELRTNGKKENYTVEVERQGNTWTVKRITRT [S21E],1.96
4,EEKRQVKQVAKEKLLEQSPNAKVQVRRVQKQGNTIRVELELRTNGKKENYTVEVERQGNTWTVKRITRT [S21A],3.98
5,EEKRQVKQVAKEKLLEQSPNWKVQVRRVQKQGNTIRVELELRTNGKKENYTVEVERQGNTWTVKRITRT [S21W],2.89
6,EEKRQVKQVAKEKLLEQSPNYKVQVRRVQKQGNTIRVELELRTNGKKENYTVEVERQGNTWTVKRITRT [S21Y],2.67
7,EEKRQVKQVAKEKLLEQSPNNKVQVRRVQKQGNTIRVELELRTNGKKENYTVEVERQGNTWTVKRITRT [S21N],2.38
8,EEKRQVKQVAKEKLLEQSPESKVQVRRVQKQGNTIRVELELRTNGKKENYTVEVERQGNTWTVKRITRT [N20E],3.53
9,EEKRQVKQVAKEKLLEQSPLSKVQVRRVQKQGNTIRVELELRTNGKKENYTVEVERQGNTWTVKRITRT [N20L],3.6
10,EEKRQVKQVAKEKLLEQSPASKVQVRRVQKQGNTIRVELELRTNGKKENYTVEVERQGNTWTVKRITRT [N20A],3.77
11,EEKRQVKQVAKEKLLEQSPFSKVQVRRVQKQGNTIRVELELRTNGKKENYTVEVERQGNTWTVKRITRT [N20F],3.35
12,EEKRQVKQVAKEKLLEQSPPSKVQVRRVQKQGNTIRVELELRTNGKKENYTVEVERQGNTWTVKRITRT [N20P],2.3
13,EEKRQVKQVAKEKLLEQSPKSKVQVRRVQKQGNTIRVELELRTNGKKENYTVEVERQGNTWTVKRITRT [N20K],3.55
14,EEKRQVKQVAKEKLLEQSPWSKVQVRRVQKQGNTIRVELELRTNGKKENYTVEVERQGNTWTVKRITRT [N20W],2.38
15,EEKRQVKQVAKEKLLEQSPGSKVQVRRVQKQGNTIRVELELRTNGKKENYTVEVERQGNTWTVKRITRT [N20G],4.21
16,EEKRQVKQVAKEKLLEQSPHSKVQVRRVQKQGNTIRVELELRTNGKKENYTVEVERQGNTWTVKRITRT [N20H],3.64
17,EEKRQVKQVAKEKLLEQSPMSKVQVRRVQKQGNTIRVELELRTNGKKENYTVEVERQGNTWTVKRITRT [N20M],3.58
18,EEKRQVKQVAKEKLLEQSPYSKVQVRRVQKQGNTIRVELELRTNGKKENYTVEVERQGNTWTVKRITRT [N20Y],3.32
19,EEKRQVKQVAKEKLLEQSPDSKVQVRRVQKQGNTIRVELELRTNGKKENYTVEVERQGNTWTVKRITRT [N20D],3.66
20,EEKRQVKQVAKEKLLEQSPTSKVQVRRVQKQGNTIRVELELRTNGKKENYTVEVERQGNTWTVKRITRT [N20T],3.6
21,EEKRQVKQVAKEKLLEQSPRSKVQVRRVQKQGNTIRVELELRTNGKKENYTVEVERQGNTWTVKRITRT [N20R],3.5
22,EEKRQVKQVAKEKLLEQSPVSKVQVRRVQKQGNTIRVELELRTNGKKENYTVEVERQGNTWTVKRITRT [N20V],2.78
23,EEKRQVKQVAKEKLLEQSPISKVQVRRVQKQGNTIRVELELRTNGKKENYTVEVERQGNTWTVKRITRT [N20I],3.03
24,EEKRQVKQVAKEKLLEQSPCSKVQVRRVQKQGNTIRVELELRTNGKKENYTVEVERQGNTWTVKRITRT [N20C],3.53
25,EEKRQVKQVAKEKLLEQSPSSKVQVRRVQKQGNTIRVELELRTNGKKENYTVEVERQGNTWTVKRITRT [N20S],3.81
26,EEKRQVKQVAKEKLLEQSPQSKVQVRRVQKQGNTIRVELELRTNGKKENYTVEVERQGNTWTVKRITRT [N20Q],3.62
